Measurements: article PMC3223566, “The Initiation Factor TFE and the Elongation Factor Spt4/5 Compete for the RNAP Clamp during Transcription Initiation and Elongation” (Molecular Cell, 2011)

Experiments:
[1] = target: T1, M. jannaschii RNA polymerase, wild type, reconstituted from 12 recombinant subunits (M. jannaschii, UniProt Q58443 1-78; Q57840 1-187); experiment: fluorescence polarisation; fluorescence anisotropy; RNAP added to labeled TFE^44*Cy3B (50 nM); apparent dissociation constant by direct fitting of the titration curves; details: both partners purified
T1 construct: RNA polymerase subunit Rpo1′, M. jannaschii; holds the clamp coiled-coil motif; RNA polymerase subunit Rpo2″, M. jannaschii; RNA polymerase subunit Rpo4 (stalk), M. jannaschii; RNA polymerase subunit Rpo5, M. jannaschii; RNA polymerase subunit Rpo7 (stalk), M. jannaschii; In PIC and TEC experiments the same RNAP stood with DNA, TBP and TFB, or with a DNA/RNA scaffold (see the assay's format); …

[2] = target: T2, RNAPΔRpo4/7, ten-subunit RNAP subassembly lacking Rpo4/7 (M. jannaschii, UniProt Q58443 1-78); experiment: as above; details: both partners purified
T2 construct: RNA polymerase subunit Rpo1′, M. jannaschii; holds the clamp coiled-coil motif; RNA polymerase subunit Rpo2″, M. jannaschii; RNA polymerase subunit Rpo5, M. jannaschii; As m6 without the chains Rpo4 and Rpo7; source: recombinant subunits, reconstituted in vitro without Rpo4/7; copies: + + + + + + + + +

- Kd [1]: 200 ± 10 nM
- Kd [2]: 1700 ± 150 nM
B1: TFE labeled with Cy3B at residue 44 (WH domain) (natural protein)
chain: MLNDPLVQEVLFNIFEGDEKGFEVIDVLLEKGETTEEEIAKELFVKLNVVRKLLYKLYDARLVDYKRWKDEDTNWYSYTWLPTLEKLPYVVKKKINELIKDLEKKLEFEKNNMFFFCPNCNVRFTFEEAMDYGFSCPGCGNMLQEFDNSELIKDLEEQIKFLKEELKNNPFLK
modifications: p-azido phenylalanine (APA) at position 44, derivatized with Cy3B
